# In the Human Domainome abundance scans (Beltran et al. 2025):
# ± gives the uncertainty stated by the source.
# B1: MEF2-activating motif and SAP domain-containing transcriptional regulator, residues 170 to 204; numbered along this chain, Q6ZN01 (parent)
# chain: LKLEELTVSELRQQLRLRGLPVSGTKSMLLERMRG
# Variants of: B1
# Assay: abundance fitness (aPCA) (normalised: wild type 0, dead -1); higher = more abundant; growth selection in yeast, the domain comes from the species named
# Conditions: Homo sapiens
row,Variant,abundance fitness
1,LKLEELTVSELRQQLRLRGLPVSGTLSMLLERMRG [K26L],-0.159 ± 0.1
2,LKLEELTVSELRQQLRLRGLPVSGTTSMLLERMRG [K26T],-0.42 ± 0.097
3,LKLEELTVSELRQQLRLRGLPVSGTRSMLLERMRG [K26R],0.048 ± 0.069
4,LKLEELTVSELRQQLRLRGLPVSGTCSMLLERMRG [K26C],-0.761 ± 0.15
5,LKLEELTVSELRQQLRLRGLPVSGTASMLLERMRG [K26A],-0.057 ± 0.064
6,LKLEELTVSELRQQLRLRGLPVSGTSSMLLERMRG [K26S],-0.697 ± 0.1
7,LKLEELTVSELRQQLRLRGLPVSGTGSMLLERMRG [K26G],-0.78 ± 0.1
8,LKLEELTVSELRQQLRLRGLPVSGTWSMLLERMRG [K26W],-0.361 ± 0.15
9,LKLEELTVSELRQQLRLRGLPVSGTMSMLLERMRG [K26M],-0.725 ± 0.33
10,LKLEELTVSELRQQLRLRGLPVSGTQSMLLERMRG [K26Q],-0.221 ± 0.069
11,LKLEELTVSELRQQLRLRGLPVSGTESMLLERMRG [K26E],-0.379 ± 0.17
12,LKLEELTVSELRQQLRLRGLPVSGTDSMLLERMRG [K26D],-0.467 ± 0.32
13,LKLEELTVSELRQQLRLRGLPVSGFKSMLLERMRG [T25F],-0.608 ± 0.34
14,LKLEELTVSELRQQLRLRGLPVSGDKSMLLERMRG [T25D],0.215 ± 0.096
15,LKLEELTVSELRQQLRLRGLPVSGGKSMLLERMRG [T25G],-0.27 ± 0.059
16,LKLEELTVSELRQQLRLRGLPVSGPKSMLLERMRG [T25P],-0.29 ± 0.068
17,LKLEELTVSELRQQLRLRGLPVSGVKSMLLERMRG [T25V],-0.435 ± 0.073
18,LKLEELTVSELRQQLRLRGLPVSGLKSMLLERMRG [T25L],-0.581 ± 0.075
19,LKLEELTVSELRQQLRLRGLPVSGRKSMLLERMRG [T25R],-0.497 ± 0.054
20,LKLEELTVSELRQQLRLRGLPVSGMKSMLLERMRG [T25M],-0.517 ± 0.2
21,LKLEELTVSELRQQLRLRGLPVSGHKSMLLERMRG [T25H],-0.295 ± 0.18
22,LKLEELTVSELRQQLRLRGLPVSGCKSMLLERMRG [T25C],-0.43 ± 0.13
23,LKLEELTVSELRQQLRLRGLPVSGKKSMLLERMRG [T25K],-0.204 ± 0.1
24,LKLEELTVSELRQQLRLRGLPVSGQKSMLLERMRG [T25Q],-0.441 ± 0.15

row,Variant,abundance fitness
1,LKLEELTVSELRQQLRLRGLPVSGEKSMLLERMRG [T25E],-0.051 ± 0.06
2,LKLEELTVSELRQQLRLRGLPVSGSKSMLLERMRG [T25S],0.004 ± 0.069
3,LKLEELTVSELRQQLRLRGLPSSGTKSMLLERMRG [V22S],-0.168 ± 0.078
4,LKLEELTVSELRQQLRLRGLPYSGTKSMLLERMRG [V22Y],0.298 ± 0.11
5,LKLEELTVSELRQQLRLRGLPWSGTKSMLLERMRG [V22W],-0.595 ± 0.12
6,LKLEELTVSELRQQLRLRGLPISGTKSMLLERMRG [V22I],-0.262 ± 0.24
7,LKLEELTVSELRQQLRLRGLPQSGTKSMLLERMRG [V22Q],-0.108 ± 0.068
8,LKLEELTVSELRQQLRLRGLPLSGTKSMLLERMRG [V22L],-0.209 ± 0.076
9,LKLEELTVSELRQQLRLRGLPTSGTKSMLLERMRG [V22T],0.152 ± 0.097
10,LKLEELTVSELRQQLRLRGLPESGTKSMLLERMRG [V22E],0.025 ± 0.17
11,LKLEELTVSELRQQLRLRGLPCSGTKSMLLERMRG [V22C],-0.255 ± 0.13
12,LKLEELTVSELRQQLRLRGLPRSGTKSMLLERMRG [V22R],-0.375 ± 0.087
13,LKLEELTVSELRQQLRLRGLPPSGTKSMLLERMRG [V22P],-0.701 ± 0.2
14,LKLEELTVSELRQQLRLRGLPASGTKSMLLERMRG [V22A],0.052 ± 0.1
15,LKLEELTVSELRQQLRLRGLPDSGTKSMLLERMRG [V22D],-0.046 ± 0.096
16,LKLEELTVSELRQQLRLRGLPNSGTKSMLLERMRG [V22N],-0.407 ± 0.17
17,LKLEELTVSELRQQLRLRGLPVSGTKRMLLERMRG [S27R],-0.154 ± 0.064
18,LKLEELTVSELRQQLRLRGLPVSGTKWMLLERMRG [S27W],-0.23 ± 0.06
19,LKLEELTVSELRQQLRLRGLPVSGTKTMLLERMRG [S27T],-0.108 ± 0.078
20,LKLEELTVSELRQQLRLRGLPVSGTKGMLLERMRG [S27G],-0.108 ± 0.066
21,LKLEELTVSELRQQLRLRGLPVSGTKDMLLERMRG [S27D],0.069 ± 0.065
22,LKLEELTVSELRQQLRLRGLPVSGTKAMLLERMRG [S27A],-0.1 ± 0.064
23,LKLEELTVSELRQQLRLRGLPVSGTKYMLLERMRG [S27Y],-0.725 ± 0.35
24,LKLEELTVSELRQQLRLRGLPVSGTKPMLLERMRG [S27P],-0.19 ± 0.12

row,Variant,abundance fitness
1,LKLEELTVSELRQQLRLRGLPVSGTKHMLLERMRG [S27H],-0.246 ± 0.091
2,LKLEELTVSELRQQLRLRGLPVSGTKLMLLERMRG [S27L],-0.281 ± 0.063
3,LKLEELTVSELRQQLRLRGLPVSGTKQMLLERMRG [S27Q],0.38 ± 0.41
4,LKLEELTVSELRQQLRLRGLPVSGTKCMLLERMRG [S27C],-0.455 ± 0.12
5,LKLEELTVSELRQQLRLRGLPVSGTKFMLLERMRG [S27F],-1.15 ± 0.27
6,LKLEELTVSELRQQLRLRGLPVSGTKEMLLERMRG [S27E],0.081 ± 0.05
7,LKLEELTVSELRQQLRLRGLPVSGTKVMLLERMRG [S27V],-0.349 ± 0.084
8,LKLEELTVSELRQQLRLRGLMVSGTKSMLLERMRG [P21M],-0.655 ± 0.23
9,LKLEELTVSELRQQLRLRGLGVSGTKSMLLERMRG [P21G],-0.297 ± 0.048
10,LKLEELTVSELRQQLRLRGLEVSGTKSMLLERMRG [P21E],-0.036 ± 0.068
11,LKLEELTVSELRQQLRLRGLRVSGTKSMLLERMRG [P21R],-0.39 ± 0.048
12,LKLEELTVSELRQQLRLRGLFVSGTKSMLLERMRG [P21F],-1.08 ± 0.26
13,LKLEELTVSELRQQLRLRGLTVSGTKSMLLERMRG [P21T],-0.235 ± 0.096
14,LKLEELTVSELRQQLRLRGLYVSGTKSMLLERMRG [P21Y],-0.909 ± 0.11
15,LKLEELTVSELRQQLRLRGLVVSGTKSMLLERMRG [P21V],-0.335 ± 0.086
16,LKLEELTVSELRQQLRLRGLNVSGTKSMLLERMRG [P21N],-0.303 ± 0.13
17,LKLEELTVSELRQQLRLRGLKVSGTKSMLLERMRG [P21K],-0.494 ± 0.082
18,LKLEELTVSELRQQLRLRGLHVSGTKSMLLERMRG [P21H],-0.727 ± 0.22
19,LKLEELTVSELRQQLRLRGLCVSGTKSMLLERMRG [P21C],-0.347 ± 0.096
20,LKLEELTVSELRQQLRLRGLAVSGTKSMLLERMRG [P21A],-0.184 ± 0.075
21,LKLEELTVSELRQQLRLRGLWVSGTKSMLLERMRG [P21W],-0.854 ± 0.066
22,LKLEELTVSELRQQLRLRGLQVSGTKSMLLERMRG [P21Q],-0.317 ± 0.058
